Measurements reported in patent EP2112164A1 (Institut Pasteur Of Shanghai, dated 2009).

Columns and labels:
[1] = target: HIV-1 envelope pDOL (subtype B) (HIV-1 (subtype B)); assay: cell-based or functional assay
[2] = target: HIV-1 envelope Q168 (subtype A) (HIV-1 (subtype A)); assay: cell-based or functional assay

B1: scFv/hinge/his-tag/DAF (anti-HIV-1 gp41 scFv derived from human monoclonal antibody TG15, human IgG3 hinge region, 6 x his tag, GPI anchor replacement signal … (scFv)
scFv: QVQLQQWGAGLLKPSETLSLTCAVYGDSFGGHHWSWIRQPPGKGLEWIGEINFLGNTNYNPSLKSRVAISKDTSKNQFSLTLNSATAADTAVYFCARRETMETASRKRAFDIWGQGTMETVTVSAGGGGSGGGGSGGGGSAELMETTQSPPTLSASVGDRVTITCRASQSLSGWVAWYQQKPGKAPKLLIYKASTLESGVPSRFSGSGSGTVFALTISSLQPDDSATYYCQQHSAFSSTFGQGTKLEIKRTPLGDTTHTSGHHHHHHGSGTTSGTTRLLSGHTCFTLTGLLGTLVTMETGLLT
[1]
  relative luciferase activity (RLA) in a single-cycle pseudotype infectivity assay, CEMss-GPI-scFv compared to CEMss-eGFP: 8 fold reduction
[2]
  relative luciferase activity (RLA) in a single-cycle pseudotype infectivity assay, CEMss-GPI-scFv compared to CEMss-eGFP: 180 fold reduction
